Columns and labels:
[1] = molecular target: NhoI (Nitrolancea hollandica); assay: crystal structure; sitting drop vapor diffusion at 18°C; proteins crystallised without DNA and as specific complexes with tetra-methylated GCNGC dsDNA, with Ca2+
[2] = molecular target: Eco15I_Ntd (N-terminal catalytic domain of Eco15I) (Escherichia coli strain 541-15); assay: as above
[3] = molecular target: T1, Eco15I_Ntd (N-terminal catalytic domain of Eco15I) (UniProt A0A0L6ZWS4); assay: SPR; 1 mM Ca2+; 50 mM KCl; SPR: 20 mM HEPES pH 7.8, 50 or 150 mM KCl, 1 mM CaCl2, 1 mM DTT, 0.05% Tween-20, 25 C; EMSA: 20 mM HEPES pH 7.8, 50 mM KCl, 1 mM DTT, 1 mM CaCl2, on ice 30 min, unlabeled unmodified oligo or salmon sperm DNA competitor; conditions: protein: recombinant; tags: 6xHis-SUMO removed by Ulp1; chain copies: 2; label: 5' biotin
T1 sequence: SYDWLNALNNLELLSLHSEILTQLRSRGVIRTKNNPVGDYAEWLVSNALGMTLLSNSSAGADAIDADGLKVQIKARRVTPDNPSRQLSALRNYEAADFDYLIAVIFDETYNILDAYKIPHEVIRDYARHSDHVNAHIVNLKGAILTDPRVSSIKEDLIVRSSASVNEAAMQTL

[4] = molecular target: T2, Eco15I_Ctd (C-terminal domain of Eco15I) (UniProt A0A0L6ZWS4); assay: as above; conditions: protein: recombinant; label: 5' biotin
T2 sequence: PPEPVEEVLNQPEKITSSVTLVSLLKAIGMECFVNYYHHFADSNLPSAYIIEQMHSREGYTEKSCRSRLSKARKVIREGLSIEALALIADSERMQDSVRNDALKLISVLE

[5] = molecular target: T1, Eco15I_Ntd (N-terminal catalytic domain …); assay: crystal structure; Ca2+ in active site; SPR: 20 mM HEPES pH 7.8, 50 or 150 mM KCl, 1 mM CaCl2, 1 mM DTT, 0.05% Tween-20, 25 C; EMSA: 20 mM HEPES pH 7.8, 50 mM KCl, 1 mM DTT, 1 mM CaCl2, on ice 30 min, unlabeled unmodified oligo or salmon sperm DNA competitor; conditions: protein: recombinant; tags: 6xHis-SUMO removed by Ulp1; chain copies: 2; blunt
[6] = molecular target: T3, NhoI (UniProt I4EG67); assay: as above; conditions: protein: recombinant; tags: 6xHis-SUMO removed by Ulp1; chain copies: 2; blunt
T3 sequence: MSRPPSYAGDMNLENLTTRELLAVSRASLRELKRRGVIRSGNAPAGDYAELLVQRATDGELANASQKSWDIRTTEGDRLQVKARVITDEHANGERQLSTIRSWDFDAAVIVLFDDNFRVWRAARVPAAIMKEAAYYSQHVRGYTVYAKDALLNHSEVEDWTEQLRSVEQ

Molecule: NhoI (enzyme)
- stoichiometry N [1]: 2

Molecule: Eco15I_Ntd (N-terminal catalytic domain of Eco15I) (domain or fragment)
- stoichiometry N [2]: 2

B1: SPR duplex, four 5mC in GCNGC (dsDNA)
DNA 1: CGGTTGAGCAGCACCTCAGA
DNA 2: TCTGAGGTGCTGCTCAACCG
modifications: 5mC at both internal and both external cytosines
- binding result [3]: binds
- binding result [4]: no binding

B2: Eco15I_Ntd co-crystal duplex, tetramethylated GCAGC (dsDNA)
DNA 1: AAGCAGCAA
DNA 2: TTGCTGCTT
modifications: 5mC at positions 4 and 7 of strand 1; 5mC at positions 4 and 7 of strand 2
- binding result [5]: binds

B3: NhoI co-crystal duplex, tetramethylated GCAGC (dsDNA)
DNA 1: CTGCAGCTC
DNA 2: GAGCTGCAG
modifications: 5mC at positions 4 and 7 of strand 1; 5mC at positions 4 and 7 of strand 2
- binding result [6]: binds

From publication PMC11347163, “Structural analysis of the BisI family of modification dependent restriction endonucleases”
